Reference: patent publication US20190233498A1 (H LUNDBECK A S, published 2019)

T1: human PACAP38 (human, not fully specified; C-terminal lysine is amidated; N-terminal or C-terminal biotin in the HTRF and PC-12 cell binding assays)
T1 construct: synthetic peptide, bought; also called huPACAP (1-38)
T1 peptide: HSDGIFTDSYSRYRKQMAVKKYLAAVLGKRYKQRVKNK

T2: human PACAP27 (human, C-terminal leucine is amidated; 125I-labelled in Example 10)
T2 peptide: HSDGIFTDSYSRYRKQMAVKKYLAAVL

T3: human VIP (human)
T3 construct: also called Vasoactive Intestinal Peptide
T3 peptide: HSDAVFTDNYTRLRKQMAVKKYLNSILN


What was measured:
human PACAP38 [1] = target: T1, human PACAP38; assay: inhibition of 30 nM biotin-PACAP38 binding to PC-12 cells, TRF
Protocol: (§1) To identify antibodies that block PACAP38 binding to PAC1-R-expressing cells, adherent PC-12 cells (ATCC, Manassas, Va.) expressing PAC1-R were used in a Europium-based PAC1-R expressing cells binding assay.
(§2) Antibody solutions were incubated with N-terminal biotinylated PACAP38 at 10× the final concentration (100 nM or 30 nM) for 1 hr, then added to PC-12 cells that were plated 24 hrs. prior in black clear bottom 96 well plates (COSTAR™, Corning Incorporated, Corning, N.Y.) and further incubated for 1 hr at room temperature. After three washes, the cells were incubated with 20 μl Europium-labeled streptavidin (PerkinElmer, Waltham, Mass.) for 1 hr at room temperature. Cells were washed three times, then 20 μl DELFIA® Enhancement solution (PerkinElmer, Waltham, Mass.) was added to each well and incubated for 15 minutes with gentle shaking. Plates were read (Time Resolved Fluorescence (“TRF”)) on SPECTRAMAX® (Molecular Devices, Sunnyvale, Calif.) plate reader.
(§3) FIGS. 14A-14BB are representative of the inhibition curves obtained by this method (results are shown for Ab1, Ab2, Ab3, Ab4, Ab5, Ab6, Ab7, Ab8, Ab9, Ab10, Ab11, Ab12, Ab13, Ab14, Ab15, Ab16, Ab17, Ab18, Ab19, Ab1.H, Ab10.H, Ab22, Ab23, Ab3.H, Ab4.H, Ab5.H, Ab9.H, and Ab12.H, respectively) wherein the PAC1-R expressing cells were PC-12 cells.

human PACAP27 [2] = target: T2, human PACAP27; assay: SPR, Ab immobilised
Protocol: [The procedure below names another target; the source says it served here with some conditions changed.] (§4) Binding affinities of monoclonal antibodies for human PACAP were estimated using SPR on the PROTEON™ XPR36 (Bio-Rad, Hercules, Calif.). Antibody was immobilized to the surface of general amine coupling (“GLC” or “GLM”) Chips (Bio-Rad, Hercules, Calif.). A dilution series of human PACAP38 (SEQ ID NO: 1241) prepared in 1×PBST Buffer (4.3 mM Na Phosphate, 1.4 mM K Phosphate, 135 mM NaCl, 2.7 mM KCl 0.05% Polysorbate-20) purchased from Teknova (Cat# P1192, Teknova, Hollister, Calif.) and supplemented with 0.25 M arginine (from J.T. BAKER®), 0.2 mg/ml BSA (Jackson Immuno Research Labs, West Grove, Pa.), and 0.005% sodium azide (VWR International, Radnor, Pa.) with the pH adjusted to 7 was used to query the antibodies. Antigen (ranging from 1.23 nM to 100 nM) was typically run sequentially with association times of 2-4 minutes and dissociation times of 3-120 minutes grouped with the PROTEON™ Manager Software (v3.1.0.6 (Bio-Rad, Hercules, Calif.)) and fitted using a 1:1 Langmuir binding model. Surfaces were regenerated between analyte queries using 0.85% Phosphoric Acid.

human VIP = target: T3, human VIP; assay: SPR, Ab immobilised
Protocol: [The procedure below names another target; the source says it served here with some conditions changed.] as §4

human PACAP38 [3] = target: T1, human PACAP38; assay: SPR, Ab immobilised
Protocol: as §4

human PACAP27 [4] = target: T2, human PACAP27; assay: cell-based or functional assay
human PACAP38 [5] = target: T1, human PACAP38; assay: cell-based or functional assay
human PACAP38 [6] = target: T1, human PACAP38; assay: cell-based or functional assay
human PACAP38 [7] = target: T1, human PACAP38; assay: cell-based or functional assay
human PACAP38 [8] = target: T1, human PACAP38; assay: inhibition of 100 nM biotin-PACAP38 binding to PC-12 cells, TRF
Protocol: as §1, §2, §3

human PACAP38 [9] = target: T1, human PACAP38; assay: HTRF binding, biotin-PACAP38
Protocol: In parallel, 10 μl of an antibody dilution series (highest final concentration of 100 nM) were incubated with 10 μl of N-terminal or C-terminal biotinylated PACAP38 (35 nM final) alone, or in combination with either PACAP27 (350 nM final) or VIP (350 nM final), i.e., 10× PACAP27 or 10×VIP, respectively, in a HTRF plate. 20 μl of Eu³⁺ cryptate labeled anti-hu Fc donor and 20 μl of d2-labeled streptavidin acceptor were added to each well and incubated for 1 hour at room temperature. Fluorescence was measured at 620 and 665 nm with a delay of 300 μsec.
EC₅₀ values, i.e. the concentration of an antibody that yields a response halfway between the baseline and the maximum value within a specified time period, were computed for each antibody based upon their binding curves and are shown in Table 1 below. […] A humanized form of antibody Ab1 was produced and is identified by an appended “.H”, i.e., Ab1.H, and it also bound PACAP38 with high affinity.

| Binder | IC50 (human PACAP38 [1]) [µM] | Kd (human PACAP27 [2]) [pM] | koff (human PACAP27 [2]) [s⁻¹] | kon (human PACAP27 [2]) [M⁻¹ s⁻¹] | Kd (human VIP) [µM] | koff (human VIP) [s⁻¹] | kon (human VIP) [M⁻¹ s⁻¹] | Kd (human PACAP38 [3]) [pM] | koff (human PACAP38 [3]) [s⁻¹] | kon (human PACAP38 [3]) [M⁻¹ s⁻¹] | IC50, 0.1 nM PACAP27-induced PAC1-R mediated cAMP increase (human PACAP27 [4]) [pM] | IC50, 0.1 nM PACAP38-induced PAC1-R mediated cAMP increase (human PACAP38 [5]) [pM] | IC50, 5 nM PACAP38-induced human VPAC1-R mediated cAMP increase (human PACAP38 [6]) [µM] | IC50, 1 nM PACAP38-induced human VPAC2-R mediated cAMP increase (human PACAP38 [7]) [µM] | IC50 (human PACAP38 [8]) [µM] | EC50 (human PACAP38 [9]) [µM] |
| --- | --- | --- | --- | --- | --- | --- | --- | --- | --- | --- | --- | --- | --- | --- | --- | --- |
| anti-PACAP antibody Ab4.H (antibody, human IgG1, kappa, N297A, V domains shown, humanized form of Ab4, full length) VH: EVQLVESGGGLVQPGGSLRLSCAASGFSLSSYDMSWVRQAPGKGLEWIGIINTNDDTWYASWVKGRFTISRDNSKNTLYLQMNSLRAEDTAVYYCARISDAYVFDYAYYFTLWGQGTLVTVSS VL: DIQMTQSPSTLSASVGDRVTITCLASQNIYNSLAWYQQKPGKAPKLLIYRASTLASGVPSRFSGSGSGTEFTLTISSLQPDDFATYYCQQGAGADNIGNPFGGGTKVEIKR | 0.098 | ≤ 31 | ≤ 1e-05 | 330000 | 0.072 | 0.024 | 330000 | 100 | 3.2e-05 | 310000 | 294 | 307 | 0.0026 | 0.00449 | – | – |
| anti-PACAP antibody Ab3.H (antibody, human IgG1, kappa, N297A, V domains shown, humanized form of Ab3, full length) VH: EVQLVESGGGLVQPGGSLRLSCAASGFSFSSSDYMCWVRQAPGKGLEWIGCIDAGSSGDTYFASSAKGRFTISRDNSKNTVYLQMNSLRAEDTAVYFCARHLYGSITFAFGLWGQGTLVTVSS VL: AAQMTQSPSTLSASVGDRVTITCQASQSIGSDLAWYQQKPGKAPKLLIYDASTLASGVPSRFSGSGSGTEFTLTISSLQPDDFATYYCQGTYYSSGWYTAFGGGTKVEIKR | 0.0883 | 1000 | 0.00034 | 330000 | 100000 | 0.1 | – | 290 | 0.00014 | 490000 | 1210 | 1320 | 0.00733 | 0.0642 | – | – |
| anti-PACAP antibody Ab1 (antibody, human IgG1, kappa, N297A, V domains shown, full-length rabbit/human chimeric antibody) VH: QSVEESGGRLVTPGTPLTLTCTVSGFSLSSAVMNWVRQAPGKGLEWIGSIVASGTTYYASWANGRFTISKTSSTTMDLKMTSPTTEDTATYFCARGGGEFFIWGPGTLVTVSS VL: DPVMTQTPSSTSAAVGGTVTISCQSSESVYSNYLSWYQQKPGQPPNFLIYQASNLASGVPSRFKGSGSGTQFTLTITDLECDDAATYYCAGGYSENIVGFGGGTEVVVKR | – | ≤ 100 | ≤ 1e-05 | 1e+06 | 0.099 | 0.025 | 250000 | ≤ 27 | ≤ 1e-05 | 370000 | 72.9 | 293 | 0.000665 | 0.000147 | 0.0127 | 0.00043 |
| anti-PACAP antibody Ab2 (antibody, human IgG1, kappa, N297A, V domains shown, full-length rabbit/human chimeric antibody) VH: QSVEESGGRLVTPGTPLTLTCTVSGFSLSGAAMNWVRQAPGKGLEWIGVIGNSGSTYYASWAKGRFTISKTSSTTVDLKMTSPTTEDTATYFCARGGGEFFIWGQGTLVTVSS VL: AQVLTQTPSPVSAAVGGTVTINCQSSESVYKNNYLSWYQQKPGQPPKFLIYQASNLADGVPSRFKGSGSGTQFTLTISDLECDDAATYYCAGGYSTYMSGFGGGTEVVVKR | – | ≤ 12 | ≤ 1e-05 | 830000 | 0.14 | 0.084 | 580000 | ≤ 44 | ≤ 1e-05 | 230000 | 63 | 237 | 0.000688 | 0.000174 | 0.0266 | 0.00035 |

Continued, values first:

| IC50 (human PACAP38 [1]) [µM] | Kd (human PACAP27 [2]) [pM] | koff (human PACAP27 [2]) [s⁻¹] | kon (human PACAP27 [2]) [M⁻¹ s⁻¹] | Kd (human VIP) [µM] | koff (human VIP) [s⁻¹] | kon (human VIP) [M⁻¹ s⁻¹] | Kd (human PACAP38 [3]) [pM] | koff (human PACAP38 [3]) [s⁻¹] | kon (human PACAP38 [3]) [M⁻¹ s⁻¹] | IC50, 0.1 nM PACAP27-induced PAC1-R mediated cAMP increase (human PACAP27 [4]) [pM] | IC50, 0.1 nM PACAP38-induced PAC1-R mediated cAMP increase (human PACAP38 [5]) [pM] | IC50, 5 nM PACAP38-induced human VPAC1-R mediated cAMP increase (human PACAP38 [6]) [µM] | IC50, 1 nM PACAP38-induced human VPAC2-R mediated cAMP increase (human PACAP38 [7]) [µM] | IC50 (human PACAP38 [8]) [µM] | EC50 (human PACAP38 [9]) [µM] | Binder |
| --- | --- | --- | --- | --- | --- | --- | --- | --- | --- | --- | --- | --- | --- | --- | --- | --- |
| – | 210 | 8.2e-05 | 390000 | 0.044 | 0.00014 | 3100 | 140 | 4.1e-05 | 300000 | 380 | 51.2 | 0.000797 | 0.000217 | 0.0078 | 0.0005 | anti-PACAP antibody Ab6 (antibody, human IgG1, kappa, N297A, V domains shown, full-length rabbit/human chimeric antibody) VH: LEQSGGGAEGGLVKPGGSLELCCKASGFSLSSTYWMCWVRQAPGKGLEWIGCIYTGSGSTDYASWVNGQFTLSRDIDQSTGCLQLNSLTVADTAMYYCTKNFDLWGPGTLVTVSS VL: AQVLTQTPSSVSAAVGGTVTINCQSSPSVYSNNYLSWFQQKPGQPPKGLIADASTLASGVPSRFKGSGSGTQFTLTISGVQCDDAAAYYCLGYYDCGSTDCHAFGGGTEVVVKR |
| – | 340 | 0.00032 | 960000 | 100000 | 0.1 | – | 140 | 0.00011 | 820000 | 2840 | 987 | 0.00406 | 0.00696 | 0.0333 | 0.00023 | anti-PACAP antibody Ab9 (antibody, human IgG1, kappa, N297A, V domains shown, full-length rabbit/human chimeric antibody) VH: EQSGGGAEGGLVKPGGSLKLSCKASGFTISRDYWICWVRQAPGKGLEWIGCISAGGGSTDYANWVNGRFTLSRDIDQSTGCLQLNSLTDADTAMYYCAGNLEIWGQGTLVTVSS VL: AQVLTQTPSSVSAAVGGTVTINCQSSPSIYSGAFLSWFQQKPGQPPKFLIYEASKLASGVPSRFSGSGSGTQFTLTISDVQCDDAATYYCLGFYDCSSVDCHAFGGGTEVVVKR |
| – | 140 | 6e-05 | 440000 | 0.21 | 0.1 | 480000 | ≤ 29 | ≤ 1e-05 | 350000 | 49 | 39.3 | 0.000481 | 0.000147 | 0.0203 | 0.00048 | anti-PACAP antibody Ab8 (antibody, human IgG1, kappa, N297A, V domains shown, full-length rabbit/human chimeric antibody) VH: LEQSGGGAEGGLVKPGGSLELCCKASGFSLTTSHWMCWVRQAPGKGLNWIGCISAGSGDADYATWVDAQFTLSRDIDQNTGCLQLNSLTPADTAMYYCTINFELWGQGTLVTVSS VL: AQVLTQTPSSVSAAVGGTVTINCQSSPSVYSSYLSWFQQKPGQPPKFLIYEASKLASGVPSRFSGSGSGTQFTLTISGVQCSDAATYYCLGAYDCGRTDCHAFGGGTEVVVKR |
